Reference: patent US20160272683A1 (Novo Nordisk, published 2016)
Numbered stars: 1 amine (or outer) side, 2 acyl side, 3 side chain; on linkers, the order of the positions; unused ones are H or OH. * marks the point of attachment. C20 diacid = O=C(O)CCCCCCCCCCCCCCCCCCC(=O)*; C18 diacid = O=C(O)CCCCCCCCCCCCCCCCC(=O)*; γGlu = O=C(O)[C@H](CCC(=O)[*:2])N[*:1]

T1: human amylin 3(a) receptor (human calcitonin receptor co-expressed with RAMP-3) (human, UniProt P30988 25-474; O60896 24-148, limits assumed)
T1 sequence (looked up) 1: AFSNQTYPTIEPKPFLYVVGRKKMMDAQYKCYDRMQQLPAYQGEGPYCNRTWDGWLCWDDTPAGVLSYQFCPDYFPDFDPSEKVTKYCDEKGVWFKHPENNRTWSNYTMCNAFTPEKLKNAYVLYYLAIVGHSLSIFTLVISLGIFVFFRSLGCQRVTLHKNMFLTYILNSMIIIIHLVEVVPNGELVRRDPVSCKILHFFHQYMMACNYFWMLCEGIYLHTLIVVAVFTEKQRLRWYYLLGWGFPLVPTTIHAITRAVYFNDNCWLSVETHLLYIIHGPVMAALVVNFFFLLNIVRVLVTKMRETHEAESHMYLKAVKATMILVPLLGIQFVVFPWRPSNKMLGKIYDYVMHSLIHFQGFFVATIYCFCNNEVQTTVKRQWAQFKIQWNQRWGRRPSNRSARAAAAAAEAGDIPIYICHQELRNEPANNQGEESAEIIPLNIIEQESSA
T1 sequence (looked up) 2: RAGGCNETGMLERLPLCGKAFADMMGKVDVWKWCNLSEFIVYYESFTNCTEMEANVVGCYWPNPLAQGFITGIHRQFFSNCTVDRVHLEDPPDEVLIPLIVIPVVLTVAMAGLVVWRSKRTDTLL

T2: human calcitonin receptor (human, UniProt P30988 25-474)
T2 sequence (looked up): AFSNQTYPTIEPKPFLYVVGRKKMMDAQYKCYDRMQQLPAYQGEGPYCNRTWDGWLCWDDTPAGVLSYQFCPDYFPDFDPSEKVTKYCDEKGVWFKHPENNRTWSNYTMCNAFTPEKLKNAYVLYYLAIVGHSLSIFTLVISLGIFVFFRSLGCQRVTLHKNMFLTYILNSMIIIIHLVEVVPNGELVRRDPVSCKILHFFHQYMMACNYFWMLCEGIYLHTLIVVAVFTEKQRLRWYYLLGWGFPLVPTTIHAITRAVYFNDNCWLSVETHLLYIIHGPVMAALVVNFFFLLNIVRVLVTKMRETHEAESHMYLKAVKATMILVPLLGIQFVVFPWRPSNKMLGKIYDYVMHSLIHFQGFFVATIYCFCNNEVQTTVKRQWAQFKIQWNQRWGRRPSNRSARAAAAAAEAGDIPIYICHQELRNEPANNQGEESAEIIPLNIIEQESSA


Assays:
[1] = molecular target: T1, human amylin 3(a) receptor (human …); experiment: cell-based or functional assay
[2] = molecular target: T2, human calcitonin receptor; experiment: cell-based or functional assay

hAmylin-R funct. EC50 (pM) [1] [pM]	hCTR funct. EC50 (pM) [2] [pM]	Binder
72	49	{C20 diacid-γGlu}-ASGLSTAVLGRLSQELHELQTYPRTETGSQTY-NH2 (SMILES CC(C)C[C@H](NC(=O)CNC(=O)[C@H](CO)NC(=O)[C@H](C)NC(=O)CC[C@H](NC(=O)CCCCCCCCCCCCCCCCCCC(=O)O)C(=O)O)C(=O)N[C@@H](CO)C(=O)N[C@H](C(=O)N[C@@H](C)C(=O)N[C@H](C(=O)N[C@@H](CC(C)C)C(=O)NCC(=O)N[C@@H](CCCNC(=N)N)C(=O)N[C@@H](CC(C)C)C(=O)N[C@@H](CO)C(=O)N[C@@H](CCC(N)=O)C(=O)N[C@@H](CCC(=O)O)C(=O)N[C@@H](CC(C)C)C(=O)N[C@@H](Cc1c[nH]cn1)C(=O)N[C@@H](CCC(=O)O)C(=O)N[C@@H](CC(C)C)C(=O)N[C@@H](CCC(N)=O)C(=O)N[C@H](C(=O)N[C@@H](Cc1ccc(O)cc1)C(=O)N1CCC[C@H]1C(=O)N[C@@H](CCCNC(=N)N)C(=O)N[C@H](C(=O)N[C@@H](CCC(=O)O)C(=O)N[C@H](C(=O)NCC(=O)N[C@@H](CO)C(=O)N[C@@H](CCC(N)=O)C(=O)N[C@H](C(=O)N[C@@H](Cc1ccc(O)cc1)C(N)=O)[C@@H](C)O)[C@@H](C)O)[C@@H](C)O)[C@@H](C)O)C(C)C)[C@@H](C)O) [[N-terminal(C20 diacid-gGlu), des1, 4G, 9V, 15Q, 21Q, 23Y, 30S, 31Q, 32T, 33Y]mimylin]
57	65	{C20 diacid-γGlu}-ASGLSTAVLGRLSQELHELQTYPRTETGSGTY-NH2 (SMILES CC(C)C[C@H](NC(=O)CNC(=O)[C@H](CO)NC(=O)[C@H](C)NC(=O)CC[C@H](NC(=O)CCCCCCCCCCCCCCCCCCC(=O)O)C(=O)O)C(=O)N[C@@H](CO)C(=O)N[C@H](C(=O)N[C@@H](C)C(=O)N[C@H](C(=O)N[C@@H](CC(C)C)C(=O)NCC(=O)N[C@@H](CCCNC(=N)N)C(=O)N[C@@H](CC(C)C)C(=O)N[C@@H](CO)C(=O)N[C@@H](CCC(N)=O)C(=O)N[C@@H](CCC(=O)O)C(=O)N[C@@H](CC(C)C)C(=O)N[C@@H](Cc1c[nH]cn1)C(=O)N[C@@H](CCC(=O)O)C(=O)N[C@@H](CC(C)C)C(=O)N[C@@H](CCC(N)=O)C(=O)N[C@H](C(=O)N[C@@H](Cc1ccc(O)cc1)C(=O)N1CCC[C@H]1C(=O)N[C@@H](CCCNC(=N)N)C(=O)N[C@H](C(=O)N[C@@H](CCC(=O)O)C(=O)N[C@H](C(=O)NCC(=O)N[C@@H](CO)C(=O)NCC(=O)N[C@H](C(=O)N[C@@H](Cc1ccc(O)cc1)C(N)=O)[C@@H](C)O)[C@@H](C)O)[C@@H](C)O)[C@@H](C)O)C(C)C)[C@@H](C)O) [[N-terminal(C20 diacid-gGlu), des1, 4G, 9V, 15Q, 21Q, 23Y, 30S, 31G, 32T, 33Y]mimylin]
41	27	{C20 diacid-γGlu}-ASGLSTAALGRLSQELHELQTYPHTETGSGTY-NH2 (SMILES CC(C)C[C@H](NC(=O)CNC(=O)[C@H](CO)NC(=O)[C@H](C)NC(=O)CC[C@H](NC(=O)CCCCCCCCCCCCCCCCCCC(=O)O)C(=O)O)C(=O)N[C@@H](CO)C(=O)N[C@H](C(=O)N[C@@H](C)C(=O)N[C@@H](C)C(=O)N[C@@H](CC(C)C)C(=O)NCC(=O)N[C@@H](CCCNC(=N)N)C(=O)N[C@@H](CC(C)C)C(=O)N[C@@H](CO)C(=O)N[C@@H](CCC(N)=O)C(=O)N[C@@H](CCC(=O)O)C(=O)N[C@@H](CC(C)C)C(=O)N[C@@H](Cc1c[nH]cn1)C(=O)N[C@@H](CCC(=O)O)C(=O)N[C@@H](CC(C)C)C(=O)N[C@@H](CCC(N)=O)C(=O)N[C@H](C(=O)N[C@@H](Cc1ccc(O)cc1)C(=O)N1CCC[C@H]1C(=O)N[C@@H](Cc1c[nH]cn1)C(=O)N[C@H](C(=O)N[C@@H](CCC(=O)O)C(=O)N[C@H](C(=O)NCC(=O)N[C@@H](CO)C(=O)NCC(=O)N[C@H](C(=O)N[C@@H](Cc1ccc(O)cc1)C(N)=O)[C@@H](C)O)[C@@H](C)O)[C@@H](C)O)[C@@H](C)O)[C@@H](C)O) [[N-terminal(C20 diacid-gGlu), des1, 4G, 15Q, 21Q, 23Y, 25H, 30S, 31G, 32T, 33Y]mimylin]
62	63	{C20 diacid-γGlu}-ASQLSTAVLGRLSQELHELQTYPRTETGSQTY-NH2 (SMILES CC(C)C[C@H](NC(=O)[C@H](CCCNC(=N)N)NC(=O)CNC(=O)[C@H](CC(C)C)NC(=O)[C@@H](NC(=O)[C@H](C)NC(=O)[C@@H](NC(=O)[C@H](CO)NC(=O)[C@H](CC(C)C)NC(=O)[C@H](CCC(N)=O)NC(=O)[C@H](CO)NC(=O)[C@H](C)NC(=O)CC[C@H](NC(=O)CCCCCCCCCCCCCCCCCCC(=O)O)C(=O)O)[C@@H](C)O)C(C)C)C(=O)N[C@@H](CO)C(=O)N[C@@H](CCC(N)=O)C(=O)N[C@@H](CCC(=O)O)C(=O)N[C@@H](CC(C)C)C(=O)N[C@@H](Cc1c[nH]cn1)C(=O)N[C@@H](CCC(=O)O)C(=O)N[C@@H](CC(C)C)C(=O)N[C@@H](CCC(N)=O)C(=O)N[C@H](C(=O)N[C@@H](Cc1ccc(O)cc1)C(=O)N1CCC[C@H]1C(=O)N[C@@H](CCCNC(=N)N)C(=O)N[C@H](C(=O)N[C@@H](CCC(=O)O)C(=O)N[C@H](C(=O)NCC(=O)N[C@@H](CO)C(=O)N[C@@H](CCC(N)=O)C(=O)N[C@H](C(=O)N[C@@H](Cc1ccc(O)cc1)C(N)=O)[C@@H](C)O)[C@@H](C)O)[C@@H](C)O)[C@@H](C)O) [[N-terminal(C20 diacid-gGlu), des1, 4Q, 9V, 15Q, 21Q, 23Y, 30S, 31Q, 32T, 33Y]mimylin]
7	5	{C18 diacid}-EASELSTAALGRLSAEIHELATLPRTETGPESP-NH2 (SMILES CC[C@H](C)[C@H](NC(=O)[C@H](CCC(=O)O)NC(=O)[C@H](C)NC(=O)[C@H](CO)NC(=O)[C@H](CC(C)C)NC(=O)[C@H](CCCNC(=N)N)NC(=O)CNC(=O)[C@H](CC(C)C)NC(=O)[C@H](C)NC(=O)[C@H](C)NC(=O)[C@@H](NC(=O)[C@H](CO)NC(=O)[C@H](CC(C)C)NC(=O)[C@H](CCC(=O)O)NC(=O)[C@H](CO)NC(=O)[C@H](C)NC(=O)[C@H](CCC(=O)O)NC(=O)CCCCCCCCCCCCCCCCC(=O)O)[C@@H](C)O)C(=O)N[C@@H](Cc1c[nH]cn1)C(=O)N[C@@H](CCC(=O)O)C(=O)N[C@@H](CC(C)C)C(=O)N[C@@H](C)C(=O)N[C@H](C(=O)N[C@@H](CC(C)C)C(=O)N1CCC[C@H]1C(=O)N[C@@H](CCCNC(=N)N)C(=O)N[C@H](C(=O)N[C@@H](CCC(=O)O)C(=O)N[C@H](C(=O)NCC(=O)N1CCC[C@H]1C(=O)N[C@@H](CCC(=O)O)C(=O)N[C@@H](CO)C(=O)N1CCC[C@H]1C(N)=O)[C@@H](C)O)[C@@H](C)O)[C@@H](C)O) [[N-terminal(C18 diacid), 17I]mimylin]
